Changes are numbered by the printed parent chain.
Tests used:
P. berghei ANKA = test: Antimalarial activity in Plasmodium berghei-infected mice; assay type: in vivo; design: fold higher survival rate than in the absence of treatment: concentration or dose not given beside the values; settings: male C57BL6 mice, after day 7
Procedure: Briefly, asynchronous P. falciparum (strain 3d7) cultures were maintained at 37° C. at >10% parasitemia in fresh human red blood cells (2% hematocrit) in complete malaria medium. After 4 days (i.e., after 2 replicative parasitic cycles) flasks were synchronized with 5% sorbitol. 72 hours after synchronization, cells were plated and treated with the artemisinin derivatives at various concentrations. After 48 hours of incubation, the cells were lysed and labeled with SybrGreen and fluorescence emission was measured (excitation at 485 nm, emission at 530 nm). […] For the in vivo studies, male C57BL6 mice (6-8 weeks old) were infected with 0.7×10^5 P. berghei ANKA iRBCs and then treated with intraperitoneal injections of the compounds starting from day 3-5 post infection. A set of mice was left untreated and served as negative control. Survival was monitored and parasitemia determined SYBR-green (SYBRGr) staining of infected red blood cells and subsequent flow cytometric analysis.

[1] = biological target: P450 variant FL#62 (SEQ ID NO. 8) (Priestia megaterium, UniProt P14779, A181T/A185V/A198V/A291V/A83V/E253G/F206C/F82S/F88A/H237Q/L354V/P143S/R256S/S227R/T176I/V79A); settings: 0.5 mM substrate, 1 μM FL#62, 12 hours
Procedure: Reaction conditions were: 0.5 mM substrate, 1 μM FL#62 (SEQ ID NO: 8), 2 μM PTDH, 100 μM NADP^+, and 50 mM sodium phosphite in potassium phosphate buffer (50 mM, pH 8.0). After 12 hours, the hydroxylation products formed in these reactions were extracted with dichloromethane and quantified by HPLC and LC-MS.

wild-type P450BM3 = wild-type P450BM3 (Priestia megaterium, UniProt P14779); settings: fatty acid laurate with wild-type P450BM3; read-out: equilibrium dissociation constant; cited from earlier work
[2] = assay type: biochemical; settings: 250 μM artemisinin, rates measured over initial 30 seconds
Procedure: Measurement of Product Formation Rates and Coupling Efficiency.
Initial product formation rates were measured from 1 mL-scale reactions containing 250 μM artemisinin, 0.1-0.5 μM purified P450, and 200 μM NADPH in potassium phosphate buffer (50 mM, pH 8.0) at room temperature. After 30 seconds, the samples were extracted with dichloromethane and subjected to benzoyl chloride derivatization followed by HPLC analysis as described above. Cofactor oxidation rate in the presence of artemisinin was measured by monitoring NADPH depletion at 340 nm (ε=6.22 mM^−1 cm^−1) using 0.1 μM purified P450, 250 μM artemisinin, and 200 μM NADPH. Coupling efficiency was calculated from the ratio between the initial product formation rate and the initial NADPH oxidation rate. Reported mean and standard deviation values were calculated from experiments performed at least in triplicate.

[3] = Total turnovers and regio-/stereoselectivity of P450 variants in artemisinin hydroxylation (analytical scale); assay type: biochemical; settings: for Product distribution (%) 4: share of 6a-hydroxy-ART (4); for Product distribution (%) 4 / Product distribution (%) 3 / Product distribution (%) 2: 0.5 mM artemisinin, 0.5-1 μM P450, 12 hours; for Product distribution (%) 3: share of 7(R)-hydroxy-ART (3); for Product distribution (%) 2: share of 7(S)-hydroxy-ART (2); for TTN: total turnovers on artemisinin, NADPH cofactor regeneration system, analytical scale
Procedure: Determination of Total Turnovers and Regio- and Stereoselectivity of the P450 Variants.
After 12 hours, 9-fluorenone was added to the mixtures as internal standard. The hydroxylation products were functionalized with benzoyl chloride followed by HPLC analysis. TTN values were calculated based on the total amount of hydroxylated products in the reactions as quantified based on the calibration curves generated using purified 2-4. The enzyme regio- and stereoselectivity was determined based on the area under the curve of the chromatographic peaks corresponding to the hydroxylation products 2, 3, and 4. Mean and standard deviation values reported for P450 variants in Table 1 were calculated from experiments performed at least in triplicate.

[4] = KD for artemisinin binding to P450 variants (heme spin-shift titration); settings: binding of artemisinin to 3 μM purified P450, pH 8.0
Procedure: Determination of KD Values for Artemisinin Binding.
Binding experiments were performed using 3 μM purified P450 in potassium phosphate buffer (50 mM, pH 8.0) by titrating increasing amounts of artemisinin (5 μM to 1 mM) from an ethanol stock solution (50 mM). At each concentration, a difference spectrum from 350 to 500 nm was recorded and binding curves were generated by plotting the change in absorbance at 390 nm and 420 nm corresponding to the high-spin and low-spin state of the enzyme, respectively, against the artemisinin concentration. KD values were calculated using Sigma Plot via non-linear fitting of the experimental binding curves to an equation describing a standard 1:1 binding interaction. Reported mean and standard deviation values were calculated from experiments performed at least in triplicate.

wild-type P450BM3, sequence (P14779 whole entry): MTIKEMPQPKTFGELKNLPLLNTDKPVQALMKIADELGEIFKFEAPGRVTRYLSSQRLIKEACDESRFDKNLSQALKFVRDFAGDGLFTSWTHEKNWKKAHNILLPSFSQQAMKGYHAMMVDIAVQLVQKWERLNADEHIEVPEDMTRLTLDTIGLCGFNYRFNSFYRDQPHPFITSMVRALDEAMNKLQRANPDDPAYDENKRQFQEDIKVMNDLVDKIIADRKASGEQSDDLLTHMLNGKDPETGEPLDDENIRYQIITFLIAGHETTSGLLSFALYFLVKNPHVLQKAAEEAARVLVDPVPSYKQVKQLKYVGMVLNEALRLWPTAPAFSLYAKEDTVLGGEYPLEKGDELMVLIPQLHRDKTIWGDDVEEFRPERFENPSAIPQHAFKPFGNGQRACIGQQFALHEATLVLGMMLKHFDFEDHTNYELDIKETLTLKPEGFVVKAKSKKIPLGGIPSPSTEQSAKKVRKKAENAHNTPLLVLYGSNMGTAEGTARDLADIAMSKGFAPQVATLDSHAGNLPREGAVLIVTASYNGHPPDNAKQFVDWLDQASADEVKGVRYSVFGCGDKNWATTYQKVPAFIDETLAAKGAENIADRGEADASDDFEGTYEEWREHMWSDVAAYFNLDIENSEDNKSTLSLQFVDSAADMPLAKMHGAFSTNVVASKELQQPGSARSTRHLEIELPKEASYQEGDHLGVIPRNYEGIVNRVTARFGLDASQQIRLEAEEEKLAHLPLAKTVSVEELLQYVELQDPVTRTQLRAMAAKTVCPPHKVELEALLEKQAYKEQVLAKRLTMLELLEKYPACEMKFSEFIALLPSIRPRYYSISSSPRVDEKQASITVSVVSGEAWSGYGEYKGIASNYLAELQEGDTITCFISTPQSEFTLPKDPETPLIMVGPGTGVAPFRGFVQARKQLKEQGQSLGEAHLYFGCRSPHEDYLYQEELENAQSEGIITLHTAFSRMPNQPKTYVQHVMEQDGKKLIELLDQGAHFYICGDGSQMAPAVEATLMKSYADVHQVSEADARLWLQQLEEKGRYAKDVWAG
P450 variant FL#62 (SEQ ID NO. 8), sequence (P14779 other isoform, or with tags, fused parts or gaps with the stated changes): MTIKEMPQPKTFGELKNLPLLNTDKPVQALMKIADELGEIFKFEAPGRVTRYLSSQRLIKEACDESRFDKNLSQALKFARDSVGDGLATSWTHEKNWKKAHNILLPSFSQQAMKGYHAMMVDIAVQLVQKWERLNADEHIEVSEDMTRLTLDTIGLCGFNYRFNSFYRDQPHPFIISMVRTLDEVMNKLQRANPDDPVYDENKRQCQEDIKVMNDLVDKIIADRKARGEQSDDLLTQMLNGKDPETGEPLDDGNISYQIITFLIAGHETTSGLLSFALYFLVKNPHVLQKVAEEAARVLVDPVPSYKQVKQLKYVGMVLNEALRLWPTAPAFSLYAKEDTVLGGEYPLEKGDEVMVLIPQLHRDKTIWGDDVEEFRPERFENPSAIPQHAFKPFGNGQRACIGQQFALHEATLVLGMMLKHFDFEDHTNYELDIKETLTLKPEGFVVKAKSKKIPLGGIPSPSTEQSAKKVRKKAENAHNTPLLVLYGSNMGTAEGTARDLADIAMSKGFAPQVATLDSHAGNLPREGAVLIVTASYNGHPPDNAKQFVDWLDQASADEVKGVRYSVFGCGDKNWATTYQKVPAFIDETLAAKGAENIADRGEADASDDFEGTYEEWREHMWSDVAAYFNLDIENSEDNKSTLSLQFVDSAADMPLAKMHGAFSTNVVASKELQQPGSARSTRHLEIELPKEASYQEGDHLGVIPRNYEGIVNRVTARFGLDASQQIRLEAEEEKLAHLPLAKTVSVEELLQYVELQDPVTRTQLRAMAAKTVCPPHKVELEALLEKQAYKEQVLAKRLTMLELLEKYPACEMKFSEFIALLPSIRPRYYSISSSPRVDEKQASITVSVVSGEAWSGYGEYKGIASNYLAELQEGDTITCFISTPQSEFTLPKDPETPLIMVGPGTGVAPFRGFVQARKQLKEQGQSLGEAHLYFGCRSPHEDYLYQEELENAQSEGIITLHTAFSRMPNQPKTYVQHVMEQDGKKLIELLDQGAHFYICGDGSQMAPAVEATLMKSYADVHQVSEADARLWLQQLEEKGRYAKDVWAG

What does the source list for `CC1C(=O)OC2OC3(C)CCC4C(C)[C@H](F)CC1C24OO3` (stereo partly drawn) [Compound 5, 7(R)-fluoro-artemisinin]?
survival rate (P. berghei ANKA; intraperitoneal injections starting from day 3-5 post infection): 80%; fold higher survival rate than in the absence of treatment (P. berghei ANKA; intraperitoneal): 2 fold

Which “catalytic activity relative to that displayed in the presence of artemisinin” value [1] does the source give for `COC(=O)CCC(=O)O[C@@H]1O[C@@H]2O[C@@]3(C)CC[C@H]4[C@H](C)CC[C@@H]([C@H]1C)[C@@]24OO3` [artesunate methyl ester] here?
The value was “ca. 80%”.

With `CCCCCCCCCCCC(=O)O` [laurate] as the molecule, how does the Kd (wild-type P450BM3) read?
Its Kd is 270 µM.

B1: II-H10: FL#62-derived P450 variant (SEQ ID NO. 11), 7(R)-hydroxylating (protein)
chain: MTIKEMPQPKTFGELKNLPLLNTDKPVQALMKIADELGEIFKFEAPGRVTRYLSSQRLIKEACDESRFDKNLSQALKFNRDFTGDGLFTSWTHEKNWKKAHNILLPSFSQQAMKGYHAMMVDIAVQLVQKWERLNADEHIEVSEDMTRLTLDTIGLCGFNYRFNSFYRDQPHPFIISMVRTFDETMNKLQRANPDDPVYDENKRQCQEDIKVMNDLVDKIIADRKARGEQSDDLLTQMLNGKDPETGEPLDDGNISYQIITFLIAGHETTSGLLSFALYFLVKNPHVLQKVAEEAARVLVDPVPSYKQVKQLKYVGMVLNEALRLWPTAPAFSLYAKEDTVLGGEYPLEKGDEVMVLIPQLHRDKTIWGDDVEEFRPERFENPSAIPQHAFKPFGNGQRACIGQQFALHEATLVLGMMLKHFDFEDHTNYELDIKETLTLKPEGFVVKAKSKKIPLGGIPSPSTEQSAKKVRKKAENAHNTPLLVLYGSNMGTAEGTARDLADIAMSKGFAPQVATLDSHAGNLPREGAVLIVTASYNGHPPDNAKQFVDWLDQASADEVKGVRYSVFGCGDKNWATTYQKVPAFIDETLAAKGAENIADRGEADASDDFEGTYEEWREHMWSDVAAYFNLDIENSEDNKSTLSLQFVDSAADMPLAKMHGAFSTNVVASKELQQPGSARSTRHLEIELPKEASYQEGDHLGVIPRNYEGIVNRVTARFGLDASQQIRLEAEEEKLAHLPLAKTVSVEELLQYVELQDPVTRTQLRAMAAKTVCPPHKVELEALLEKQAYKEQVLAKRLTMLELLEKYPACEMKFSEFIALLPSIRPRYYSISSSPRVDEKQASITVSVVSGEAWSGYGEYKGIASNYLAELQEGDTITCFISTPQSEFTLPKDPETPLIMVGPGTGVAPFRGFVQARKQLKEQGQSLGEAHLYFGCRSPHEDYLYQEELENAQSEGIITLHTAFSRMPNQPKTYVQHVMEQDGKKLIELLDQGAHFYICGDGSQMAPAVEATLMKSYADVHQVSEADARLWLQQLEEKGRYAKDVWAG
With B1 as the molecule, how does the Product formation rate [2] read?
The Product formation rate was 32 ± 2 Mole product per mole P450 per minute.

What about the “Product distribution (%) 4” value [3] of the same molecule?
Its value is 0%.

And the “Product distribution (%) 3” value [3]?
The value was 100%.

What about the “Product distribution (%) 2” value [3] of the same molecule?
The value was 0%.

What about the TTN [3] of the same molecule?
The TTN was 270 ± 8.

What about the Kd [4] of the same molecule?
Its Kd is 61 ± 2 µM.

B2: III-B1: FL#62-derived P450 variant (SEQ ID NO. 12) (protein)
chain: B1 chain with N79F, T83A, F88A, F182L, T185V
Which Product formation rate [2] does the source give for B2 here?
The Product formation rate was 72 ± 2 Mole product per mole P450 per minute.

What about the “Product distribution (%) 4” value [3] of the same molecule?
Its value is 0%.

What about the “Product distribution (%) 3” value [3] of the same molecule?
The value was 81%.

And the “Product distribution (%) 2” value [3]?
Its value is 19%.

What about the TTN [3] of the same molecule?
The TTN was 403 ± 17.

What about the Kd [4] of the same molecule?
Its Kd is 38 ± 2 µM.

— US10544159B2, “Artemisinin derivatives, methods for their preparation and their use as antimalarial agents” (priority 2012, dated 2020)
